Columns and labels:
[1] = molecular target: T1, Recombinant Human DLL4 (R&D Systems Cat#1506-D4/CF) (human, UniProt Q9NR61 27-524); test: ECL (MSD multi-spot), antigen on plate, Fab 50 nM;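 note: blank spot per well as comparator with Hit at signal to blank ratio of 4 or more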
T1 construct: Bought recombinant protein; also called delta-like protein 4

[2] = molecular target: T2, rHuman EGF R/Fc Chimera, CF (R&D Systems Cat#344-ER) (human, UniProt P00533 25-645); test: ECL (MSD multi-spot), antigen on plate, Fab 50 nM;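 note: blank spot per well as comparator with Hit at signal to blank ratio of 4 or more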
T2 construct: Bought Fc chimera; also called ErbB-1; not shown: Fc of the bought chimera

B1: Fab VH1-46_IGHD6-6*01_IGHJ1*01_S102A_S103P_S104F & L6_IGKJ1*01_S31K (Fab, V domains shown)
VH: QVQLVQSGAEVKKPGASVKVSCKASGYTFTSYYMHWVRQAPGQGLEWMGIINPSGGSTSYAQKFQGRVTMTRDTSTSTVYMELSSLRSEDTAVYYCAREEYAPFSAEYFQHWGQGTLVTVSS
VL: EIVLTQSPATLSLSPGERATLSCRASQSVSKYLAWYQQKPGQAPRLLIYDASNRATGIPARFSGSGSGTDFTLTISSLEPEDFAVYYCQQRSNWPPWTFGQGTKVEIKR
notes: Fab
**Q.** What does the source list for B1?
**A.** ECL signal [1]: 35300 ECL signal; ECL signal [2]: 350 ECL signal

Reference: patent US20120058906A1 (published 2012)
